Test results: US20240067728A1

Assays:
[1] = target: PD-L1-His antigen (human) (UniProt Q9NZQ7); assay: SPR (Biacore T200), PD-L1-His immobilised on chip, antibody as mobile phase, 1:1 Binding fit
[2] = target: PD-L1 on CHO-PD-L1 cells (Promega PD-1/PD-L1 Blockade Bioassay) (UniProt Q9NZQ7)
PD-L1 on CHO-PD-L1 cells (Promega PD-1/PD-L1 Blockade Bioassay), sequence (Q9NZQ7 19-290 limits assumed): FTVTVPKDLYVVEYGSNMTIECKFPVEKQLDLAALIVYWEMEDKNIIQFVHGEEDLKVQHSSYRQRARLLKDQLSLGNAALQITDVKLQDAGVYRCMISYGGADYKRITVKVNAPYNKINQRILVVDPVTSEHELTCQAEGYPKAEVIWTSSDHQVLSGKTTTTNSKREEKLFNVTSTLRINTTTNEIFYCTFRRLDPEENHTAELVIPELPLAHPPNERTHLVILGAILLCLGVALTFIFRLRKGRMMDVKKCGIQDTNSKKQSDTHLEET

PD-L1-His antigen (human), sequence (Q9NZQ7 other isoform, or with tags, fused parts or gaps limits assumed): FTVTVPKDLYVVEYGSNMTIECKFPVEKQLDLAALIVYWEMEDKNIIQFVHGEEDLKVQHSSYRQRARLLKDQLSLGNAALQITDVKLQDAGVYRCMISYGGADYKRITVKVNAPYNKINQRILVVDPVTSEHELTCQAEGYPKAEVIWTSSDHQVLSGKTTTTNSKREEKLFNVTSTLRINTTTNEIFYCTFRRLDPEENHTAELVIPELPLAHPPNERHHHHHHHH

Kd [1]: 1.84 nM | EC50 (luciferase reporter, PD-1/PD-L1 blockade MOA assay; blocked partner: PD-1 on Jurkat-PD1 cells) [2]: 0.087 µg/mL
Substance: ATE antibody (amino acid sequence identical to atezolizumab)
